In paper PMC8655068, “Quantitative proteomic screen identifies annexin A2 as a host target for Salmonella pathogenicity island-2 effectors SopD2 and PipB2” (Scientific Reports, 2021):

Target: T1, recombinant human His6-tagged annexin A2 (human, UniProt P07355 1-339)
T1 construct: annexin A2, human, recombinant; No catalogue number is printed; also called His6-AnxA2; His6-tagged AnxA2; source: bought: Novus Biologicals
Experiment: pull-down; about 20 µg concentrated culture supernatant (SPI-2 inducing conditions) mixed with 5 µg His6-annexin A2 overnight at 4 °C; Ni-Sepharose beads 2 h at room temperature; four washes in TBS-T (20 mM Tris-HCl, 150 mM NaCl, 0.75% Triton X-100); Western blot with anti-HA and anti-AnxA2; densitometry of 3 blots, with AnxA2 over without AnxA2
Settings: one partner purified

T1 sequence (P07355 whole entry): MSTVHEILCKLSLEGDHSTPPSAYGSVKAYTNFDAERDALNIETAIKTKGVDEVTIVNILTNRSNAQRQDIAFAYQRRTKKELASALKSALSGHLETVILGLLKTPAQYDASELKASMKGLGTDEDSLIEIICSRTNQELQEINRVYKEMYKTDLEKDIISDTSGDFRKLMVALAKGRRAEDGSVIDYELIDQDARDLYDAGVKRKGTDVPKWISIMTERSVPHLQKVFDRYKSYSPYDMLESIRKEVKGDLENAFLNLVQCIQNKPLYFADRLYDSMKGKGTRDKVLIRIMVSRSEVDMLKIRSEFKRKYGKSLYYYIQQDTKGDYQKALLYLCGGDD

B1: SopD2-2HA (natural protein)
chain: MPVTLSFGNRHNYEINHSRLARLMSPDKEEALYMGVWDRFKDCFRTHKKQEVLEVLYTLIHGCERENQAELNVDITGMEKIHAFTQLKEYANPSQQDRFVMRFDMNQTQVLFEIDGKVIDKCNLHRLLNVSENCIFKVMEEDEEELFLKICIKYGEKISRYPELLEGFANKLKDAVNEDDDVKDEVYKLMRSGEDRKMECVEWNGTLTEEEKNKLRCLQMGSFNITTQFFKIGYWELEGEVLFDMVHPTLSYLLQAYKPSLSSDLIETNTMLFSDVLNKDYDDYQNNKREIDAILRRIYRSHNNTLFISEKSSCRNMLI
notes: SopD2, T3SS2-secreted effector of Salmonella enterica serovar Typhimurium SL1344, under its native promoter in pACYC184; also called pSopD2-2HA; source: S. Typhimurium SL1344 T3SS2+ ΔsopD2 carrying pSopD2-2HA: translocated into infected HeLa cells, in lysate; secreted under SPI-2 inducing conditions (LPM pH 5.8), concentrated culture supernatant; not shown: 2xHA (tandem HA), C-terminal, kept
fold change of effector pulled down with AnxA2 over without AnxA2: 12.3 fold
